Measured values published in article PMC9924070 (Science Translational Medicine, 2021).

What was measured:
[1] = biological target: T1, mouse IgG1 Fc-fused SARS-CoV-2 RBD (SARS-CoV-2, UniProt P0DTC2); test: BLI; details: both partners purified
[2] = biological target: T1, mouse IgG1 Fc-fused SARS-CoV-2 RBD; test: BLI; details: both partners purified; remark: listed apart in the source

Binder | Kd [1] | koff [1] | kon [1] | Kd [2] | koff [2] | kon [2]
(humVHH)2/WT-Fc (Fc fusion) EVQLVESGGGLVQPGGSLRLSCAASGRTFSEYAMGWFRQAPGKEREFVATISWSGGSTYYTDSVKGRFTISRDNAKNTVYLQMNSLRPEDTAVYYCAAAGLGTVVSEWDYDYDYWGQGTLVTVSSGGGGSGGGGSGGGGSEVQLVESGGGLVQPGGSLRLSCAASGRTFSEYAMGWFRQAPGKEREFVATISWSGGSTYYTDSVKGRFTISRDNAKNTVYLQMNSLRPEDTAVYYCAAAGLGTVVSEWDYDYDYWGQGTLVTVSS | < 0.001 nM | < 1e-07 s⁻¹ | 2.65e+06 M⁻¹ s⁻¹ | – | – | –
(humVHH_S56A)2/LALAPG-Fc/Gen2 (Fc fusion) DVQLVESGGGLVQPGGSLRLSCAASGRTFSEYAMGWFRQAPGKEREFVATISWSGGATYYTDSVKGRFTISRDNAKNTVYLQMNSLRPEDTAVYYCAAAGLGTVVSEWDYDYDYWGQGTLVTVSSGGGGSGGGGSGGGGSDVQLVESGGGLVQPGGSLRLSCAASGRTFSEYAMGWFRQAPGKEREFVATISWSGGATYYTDSVKGRFTISRDNAKNTVYLQMNSLRPEDTAVYYCAAAGLGTVVSEWDYDYDYWGQGTLVTVSS | < 0.001 nM | < 1e-07 s⁻¹ | 2.48e+06 M⁻¹ s⁻¹ | – | – | –
humVHH/WT-Fc (Fc fusion, also called VHH72_h1-GS-hIgG1hinge-hIgG1Fc; construct 4) EVQLVESGGGLVQPGGSLRLSCAASGRTFSEYAMGWFRQAPGKEREFVATISWSGGSTYYTDSVKGRFTISRDNAKNTVYLQMNSLRPEDTAVYYCAAAGLGTVVSEWDYDYDYWGQGTLVTVSS | – | – | – | 0.1 nM | 0.00019 s⁻¹ | 1.9e+06 M⁻¹ s⁻¹
humVHH_S56A/LALAPG-Fc/Gen2 (Fc fusion) DVQLVESGGGLVQPGGSLRLSCAASGRTFSEYAMGWFRQAPGKEREFVATISWSGGATYYTDSVKGRFTISRDNAKNTVYLQMNSLRPEDTAVYYCAAAGLGTVVSEWDYDYDYWGQGTLVTVSS | 0.0408 nM | 6.16e-05 s⁻¹ | 1.52e+06 M⁻¹ s⁻¹ | – | – | –
